Test results reported in PMC8748714 (2022).
No end group written: not given here.

T1: GLP-1R Q210A (Homo sapiens)
T1 chain: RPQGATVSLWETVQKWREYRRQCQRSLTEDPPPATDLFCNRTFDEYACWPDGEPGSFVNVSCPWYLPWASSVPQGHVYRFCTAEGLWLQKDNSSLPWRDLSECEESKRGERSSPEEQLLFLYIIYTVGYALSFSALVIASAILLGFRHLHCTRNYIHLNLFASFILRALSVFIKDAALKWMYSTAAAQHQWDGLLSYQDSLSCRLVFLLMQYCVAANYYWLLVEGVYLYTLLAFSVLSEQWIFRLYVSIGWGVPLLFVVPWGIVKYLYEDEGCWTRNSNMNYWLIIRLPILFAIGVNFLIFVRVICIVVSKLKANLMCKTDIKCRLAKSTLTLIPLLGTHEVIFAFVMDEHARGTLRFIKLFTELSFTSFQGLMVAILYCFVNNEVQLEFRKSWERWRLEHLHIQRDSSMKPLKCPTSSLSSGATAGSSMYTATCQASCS

T2: GLP-1R M204A (Homo sapiens)
T2 chain: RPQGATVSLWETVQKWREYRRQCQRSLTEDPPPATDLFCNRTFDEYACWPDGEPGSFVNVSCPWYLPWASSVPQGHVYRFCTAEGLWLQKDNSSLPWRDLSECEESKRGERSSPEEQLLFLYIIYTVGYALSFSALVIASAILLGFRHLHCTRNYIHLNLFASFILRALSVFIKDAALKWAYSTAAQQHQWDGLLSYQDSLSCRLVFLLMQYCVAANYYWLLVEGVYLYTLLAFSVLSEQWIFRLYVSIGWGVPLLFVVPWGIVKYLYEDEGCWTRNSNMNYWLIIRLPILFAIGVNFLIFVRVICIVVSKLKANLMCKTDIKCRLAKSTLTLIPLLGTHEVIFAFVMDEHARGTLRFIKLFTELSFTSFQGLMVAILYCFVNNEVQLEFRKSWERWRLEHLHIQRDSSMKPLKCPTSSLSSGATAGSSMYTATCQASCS

T3: GLP-1R L141A (Homo sapiens)
T3 chain: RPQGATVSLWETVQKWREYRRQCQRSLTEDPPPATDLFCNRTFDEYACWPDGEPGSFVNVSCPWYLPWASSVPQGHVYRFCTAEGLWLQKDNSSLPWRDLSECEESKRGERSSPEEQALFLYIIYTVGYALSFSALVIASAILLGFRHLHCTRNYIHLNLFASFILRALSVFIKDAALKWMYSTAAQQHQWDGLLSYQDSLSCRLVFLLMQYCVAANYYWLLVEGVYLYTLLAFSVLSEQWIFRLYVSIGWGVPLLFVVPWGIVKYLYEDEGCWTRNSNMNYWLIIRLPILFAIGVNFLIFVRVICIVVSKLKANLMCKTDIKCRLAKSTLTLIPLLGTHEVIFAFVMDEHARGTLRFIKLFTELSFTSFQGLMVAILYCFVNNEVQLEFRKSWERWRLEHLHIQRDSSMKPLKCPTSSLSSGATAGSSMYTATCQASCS

T4: GLP-1R Q211A (Homo sapiens)
T4 chain: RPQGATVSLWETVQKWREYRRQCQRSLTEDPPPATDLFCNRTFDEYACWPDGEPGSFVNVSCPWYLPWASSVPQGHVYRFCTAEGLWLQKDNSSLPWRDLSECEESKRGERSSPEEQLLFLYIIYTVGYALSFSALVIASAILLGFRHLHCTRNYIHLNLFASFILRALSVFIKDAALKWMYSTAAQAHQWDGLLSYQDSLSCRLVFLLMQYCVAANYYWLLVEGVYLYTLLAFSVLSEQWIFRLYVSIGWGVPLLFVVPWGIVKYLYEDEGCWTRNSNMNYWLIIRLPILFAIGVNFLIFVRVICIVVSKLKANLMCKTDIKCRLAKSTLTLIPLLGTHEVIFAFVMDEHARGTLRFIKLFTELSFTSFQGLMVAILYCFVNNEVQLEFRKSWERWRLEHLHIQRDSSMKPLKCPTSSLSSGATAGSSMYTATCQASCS

T5: GLP-1R L142A (Homo sapiens)
T5 chain: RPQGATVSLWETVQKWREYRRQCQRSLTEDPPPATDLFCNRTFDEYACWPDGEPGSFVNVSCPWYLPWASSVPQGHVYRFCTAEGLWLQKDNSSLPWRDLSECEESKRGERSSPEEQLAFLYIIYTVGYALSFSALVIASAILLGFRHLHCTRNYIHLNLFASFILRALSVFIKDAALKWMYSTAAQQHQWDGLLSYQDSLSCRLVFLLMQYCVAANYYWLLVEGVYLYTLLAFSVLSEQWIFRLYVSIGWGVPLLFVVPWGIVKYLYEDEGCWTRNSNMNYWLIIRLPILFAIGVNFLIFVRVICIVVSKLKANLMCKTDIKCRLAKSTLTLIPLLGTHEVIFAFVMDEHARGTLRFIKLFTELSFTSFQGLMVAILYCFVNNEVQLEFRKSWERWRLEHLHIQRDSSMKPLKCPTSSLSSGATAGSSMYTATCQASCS


Key:
[1] = biological target: T1, GLP-1R Q210A
[2] = biological target: T2, GLP-1R M204A
[3] = biological target: T3, GLP-1R L141A
[4] = biological target: T4, GLP-1R Q211A
[5] = biological target: T5, GLP-1R L142A

IC50 [1] [nM] | IC50 [2] [nM] | IC50 [3] [nM] | IC50 [4] [nM] | IC50 [5] [nM] | Binder
66.1 | 741 | 603 | 19.5 | 81.3 | HSQGTFTSDYSKYLDSRRAQDFVQWLMNTKRNRNNIA [oxyntomodulin]
– | 79.4 | 14.1 | 2.34 | – | HAEGTFTSDVSSYLEGQAAKEFIAWLVKGR (not fully specified (C-terminus)) [glucagon-like peptide-1]
